PMC8181125

Key:
Settings in all cases: glycan lost; control: wild type
[1] = immunofluorescence with Golgi marker TGN46, HEK293A
[2] = Western blot of core domain in conditioned medium
[3] = Western blot of full-length PDGF-C in conditioned medium
[4] = immunofluorescence colocalisation with ER marker ERP72, HEK293A
[5] = Western blot of transfected HEK293A cell lysates

In the case of PDGF-C (full-length, PC-FL): N25A, the localisation_or_trafficking [1] is reported as “no change”, the “other: proteolytic processing” value [2] is reported as “no change” and the expression_or_secretion [3] is reported as “no change”. For the same substance, the localisation_or_trafficking [4] was “no change” and the expression_or_secretion [5] was “no change”.

In the case of “PDGF-C (full-length, PC-FL): N25A + N55A”, the expression_or_secretion [3] is reported as “no change” and the expression_or_secretion [5] is reported as “no change”.

For “PDGF-C (full-length, PC-FL): N25A + N254A”, the “other: proteolytic processing” value [2] was “abolishes”, the expression_or_secretion [3] was “no change” and the expression_or_secretion [5] was “no change”.

For PDGF-C (full-length, PC-FL): N55A, the localisation_or_trafficking [1] was “no change”, the “other: proteolytic processing” value [2] was “no change” and the expression_or_secretion [3] was “no change”. The localisation_or_trafficking [4] was “no change” and the expression_or_secretion [5] was “no change”.

For “PDGF-C (full-length, PC-FL): N55A + N254A”, the “other: proteolytic processing” value [2] was “abolishes”, the expression_or_secretion [3] was “no change” and the expression_or_secretion [5] was “no change”.

For PDGF-C (full-length, PC-FL): N254A, the localisation_or_trafficking [1] was “no change”, the expression_or_secretion [3] was “no change” and the localisation_or_trafficking [4] was “no change”. The expression_or_secretion [5] was “no change”.

With “PDGF-C (full-length, PC-FL): triple NA mutant” the “other: proteolytic processing” value [2] was “abolishes”, the expression_or_secretion [3] was “no change” and the expression_or_secretion [5] was “no change”.
